Results from US9402900B2, “Methods of modulating adrenomedullin by administering an anti-adrenomedullin (ADM) antibody” (ADRENOMED AG, priority 2011, dated 2016).

Assays:
[1] = biological target: T1, Human ADM 1-52 bioactivity at human recombinant adrenomedullin receptor (CRLR+RAMP3) in CHO-K1 cells (Homo sapiens, UniProt P35318); test: Human recombinant Adrenomedullin receptor cAMP functional assay (Adrenomedullin Bioassay), human ADM as agonist; format: cell-based; conditions: in the presence of 5.63 nM Human ADM 1-52; antibody up to 100 μg/ml
T1 construct: comprises the amino acids 95 to 146 of pre-proADM; FAST-027C (receptor cell line); host or cells: CHO-K1 cells transfected with human CRLR+RAMP3
T1 sequence (P35318 95-146): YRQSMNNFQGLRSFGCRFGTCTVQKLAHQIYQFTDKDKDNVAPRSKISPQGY
Description: The effect of selected ADM-antibodies on ADM-bioactivity was tested in an human recombinant Adrenomedullin receptor cAMP functional assay (Adrenomedullin Bioassay).
Testing of Antibodies Targeting Human or Mouse Adrenomedullin in Human Recombinant Adrenomedullin Receptor cAMP Functional Assay (Adrenomedullin Bioassay)
Receptor: Adrenomedullin (CRLR+RAMP3)
Receptor Accession Number Cell line: CRLR: U17473; RAMP3: AJ001016
Dose response curves were performed in parallel with the reference agonists (hADM or mADM).
For antagonist testing, 6 μl of the reference agonist (human (5.63 nM) or mouse (0.67 nM) adrenomedullin) was mixed with 6 μl of the test samples at different antagonist dilutions; or with 6 μl buffer. After incubation for 60 min at room temperature, 12 μl of cells (2,500 cells/well) were added. The plates were incubated for 30 min at room temperature.
The anti-h-ADM antibodies (NT-H, MR-H, CT-H) were tested for antagonist activity in human recombinant adrenomedullin receptor (FAST-027C) cAMP functional assay in the presence of 5.63 nM Human ADM 1-52, at the following final antibody concentrations: 100 μg/ml, 20 μg/ml, 4 μg/ml, 0.8 μg/ml, 0.16 μg/ml.

hADM = biological target: T2, hADM (Homo sapiens, UniProt P35318); test: hADM sandwich luminescence immunoassay, dose/signal curve in presence of antibody; conditions: 100 μg/mL antibody
T2 construct: comprises the amino acids 95 to 146 of pre-proADM; purchased BACHEM AG, Switzerland
T2 sequence (P35318 95-146): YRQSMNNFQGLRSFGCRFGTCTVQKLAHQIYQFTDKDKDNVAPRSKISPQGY
Description: The assay was calibrated, using dilutions of hADM
Unbound tracer was removed by washing 5 times (each 1 ml) with washing solution (20 mM PBS, pH 7.4, 0.1% Triton X-100).
Tube-Bound Chemiluminescence was Measured by Using the LB 953

B1: NT-H: mouse monoclonal antibody raised against human ADM region 1-21 (SEQ ID: 15) (antibody, V domains shown)
VH: QVQLQQSGAELMKPGASVKISCKATGYTFSRYWIEWVKQRPGHGLEWIGEILPGSGSTNYNEKFKGKATITADTSSNTAYMQLSSLTSEDSAVYYCTEGYEYDGFDYWGQGTTLTVSS
VL: DVLLSQTPLSLPVSLGDQATISCRSSQSIVYSNGNTYLEWYLQKPGQSPKLLIYRVSNRFSGVPDRFSGSGSGTDFTLKISRVEAEDLGVYYCFQGSHIPYTFGGGTKLEIK
Maximal inhibition of ADM bioactivity (ADM-Bioassay) (%) [1]: 38% | Effect on the hADM immunoassay (dose/signal curve) (hADM): did not affect
